The results in this text go back to patent US20260042834A1 (HBM ALPHA THERAPEUTICS, published 2026).

The target of the assay is T1, corticotropin-releasing hormone (CRH) peptide (human and mouse (same sequence), not fully specified).
T1 peptide: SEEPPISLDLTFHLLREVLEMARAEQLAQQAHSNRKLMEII
The assay is described as follows: cell-based or functional assay.

B1: PR302341-1 (antibody, human IgG1, kappa, V domains shown)
VH: EVQLQQSGPELVKPGASVKMSCKASGYTFTDYFMKWVKQSHGESLEWIGVINPNNGDIFYNQKFKGKATLTVDKSSSTAFMQLNSLTSEDSAVYSCARGTDRALFAYWGQGTLVAVSA
VL: DVVMTQSPLSLPVTLGQPASISCRSGQSIVHSDGNTYLEWFQQRPGQSPRRLIYKVSNRFSGVPDRFSGSGSGTDFTLKISRVEAEDVGVYYCFQGSHIPWTFGGGTKVEIKR
As for B1, the “hCRHR1 Luciferase Reporter Assay IC50” value was found to be 0.397 nM.

B2: PR302341-12 (antibody, human IgG1, kappa, V domains shown)
VH: QVQLVQSGAEVKKPGASVKVSCKASGYTFTDYFMKWVRQAPGQGLEWMGVINPNNGDIFYNQKFKGRVTMTVDKSTSTAYMELSSLRSEDTAVYYCARGTDRALFAYWGQGTLVTVSS
VL: DVVMTQTPLSLSVTPGQPASISCRSGQSIVHSDGNTYLEWYLQKPGQSPQLLIYKVSNRFSGVPDRFSGSGSGTDFTLKISRVEAEDLGVYYCFQGSHIPWTFGGGTKVEIKR
On to B2, for which the “hCRHR1 Luciferase Reporter Assay IC50” value turned out to be 0.25 nM.

B3: PR302341-11 (antibody, human IgG1, kappa, V domains shown)
VH: QVQLVQSGAEVKKPGASVKVSCKASGYTFTDYFMKWVRQAPGQGLEWMGVINPNNGDIFYNQKFKGRVTMTVDKSTSTAYMELSSLRSEDTAVYYCARGTDRALFAYWGQGTLVTVSS
VL: DIVMTQTPLSLSVTPGQPASISCRSGQSIVHSDGNTYLEWYLQKPGQSPQLLIYKVSNRFSGVPDRFSGSGSGTDFTLKISRVEAEDVGVYYCFQGSHIPWTFGGGTKVEIKR
In the case of B3, the “hCRHR1 Luciferase Reporter Assay IC50” value stood at 0.467 nM.

B4: PR302341-19 (antibody, human IgG1, kappa, V domains shown)
VH: QVQLVQSGAEVKKPGASVKVSCKASGYTFTDYFMKWVRQAPGQGLEWMGVINPNNGDIFYNQKFKGRVTMTRDTSTSTVYMELSSLRSEDTAVYYCARGTDRALFAYWGQGTLVTVSS
VL: DVVMTQSPLSLPVTLGQPASISCRSGQSIVHSDGNTYLEWYQQRPGQSPRLLIYKVSNRFSGVPDRFSGSGSGTDFTLKISRVEAEDLGVYYCFQGSHIPWTFGGGTKVEIKR
B4: the “hCRHR1 Luciferase Reporter Assay IC50” value came out at 0.121 nM and the “mCrhr1 Luciferase Reporter Assay IC50” value worked out at 0.365 nM.

B5: PR302341-21 (antibody, human IgG1, kappa, V domains shown)
VH: QVQLVQSGAEVKKPGASVKVSCKASGYTFTDYFMKWVRQAPGQRLEWMGVINPNNGDIFYNQKFKGRVTITVDKSASTAYMELSSLRSEDTAVYYCARGTDRALFAYWGQGTLVTVSS
VL: DVVMTQSPLSLPVTLGQPASISCRSGQSIVHSDGNTYLEWYQQRPGQSPRLLIYKVSNRFSGVPDRFSGSGSGTDFTLKISRVEAEDLGVYYCFQGSHIPWTFGGGTKVEIKR
Consider B5, for which the “hCRHR1 Luciferase Reporter Assay IC50” value is 0.177 nM and the “mCrhr1 Luciferase Reporter Assay IC50” value was found to be 0.541 nM.

B6: PR302341-9 (antibody, human IgG1, kappa, V domains shown)
VH: QVQLVQSGAEVKKPGASVKVSCKASGYTFTDYFMKWVRQAPGQGLEWMGVINPNNGDIFYNQKFKGRVTMTVDKSTSTAYMELSSLRSEDTAVYYCARGTDRALFAYWGQGTLVTVSS
VL: DIVMTQTPLSSPVTLGQPASISCRSGQSIVHSDGNTYLEWLQQRPGQPPRLLIYKVSNRFSGVPDRFSGSGAGTDFTLKISRVEAEDVGVYYCFQGSHIPWTFGGGTKVEIKR
As to B6, the “hCRHR1 Luciferase Reporter Assay IC50” value came to 0.234 nM.

B7: PR302341-2 (antibody, human IgG1, kappa, V domains shown)
VH: EVQLQQSGPELVKPGASVKMSCKASGYTFTDYFMKWVKQSHGESLEWIGVINPNNGDIFYNQKFKGKATLTVDKSSSTAFMQLNSLTSEDSAVYSCARGTDRALFAYWGQGTLVAVSA
VL: DVVMTQSPLSLPVTLGQPASISCRSGQSIVHSDGNTYLEWYQQRPGQSPRLLIYKVSNRFSGVPDRFSGSGSGTDFTLKISRVEAEDLGVYYCFQGSHIPWTFGGGTKVEIKR
B7: the “hCRHR1 Luciferase Reporter Assay IC50” value came out at 0.168 nM.

B8: PR302341-7 (antibody, human IgG1, kappa, V domains shown)
VH: QVQLVQSGAEVKKPGASVKVSCKASGYTFTDYFMKWVRQAPGQGLEWMGVINPNNGDIFYNQKFKGRVTMTVDKSTSTAYMELSSLRSEDTAVYYCARGTDRALFAYWGQGTLVTVSS
VL: DVVMTQSPLSLPVTLGQPASISCRSGQSIVHSDGNTYLEWFQQRPGQSPRRLIYKVSNRFSGVPDRFSGSGSGTDFTLKISRVEAEDVGVYYCFQGSHIPWTFGGGTKVEIKR
On to B8, for which the “hCRHR1 Luciferase Reporter Assay IC50” value amounted to 0.23 nM.

B9: PR302341-6 (antibody, human IgG1, kappa, V domains shown)
VH: EVQLQQSGPELVKPGASVKMSCKASGYTFTDYFMKWVKQSHGESLEWIGVINPNNGDIFYNQKFKGKATLTVDKSSSTAFMQLNSLTSEDSAVYSCARGTDRALFAYWGQGTLVAVSA
VL: DVVMTQTPLSLSVTPGQPASISCRSGQSIVHSDGNTYLEWYLQKPGQSPQLLIYKVSNRFSGVPDRFSGSGSGTDFTLKISRVEAEDLGVYYCFQGSHIPWTFGGGTKVEIKR
As to B9, the “hCRHR1 Luciferase Reporter Assay IC50” value is 0.363 nM.

B10: PR302341-5 (antibody, human IgG1, kappa, V domains shown)
VH: EVQLQQSGPELVKPGASVKMSCKASGYTFTDYFMKWVKQSHGESLEWIGVINPNNGDIFYNQKFKGKATLTVDKSSSTAFMQLNSLTSEDSAVYSCARGTDRALFAYWGQGTLVAVSA
VL: DIVMTQTPLSLSVTPGQPASISCRSGQSIVHSDGNTYLEWYLQKPGQSPQLLIYKVSNRFSGVPDRFSGSGSGTDFTLKISRVEAEDVGVYYCFQGSHIPWTFGGGTKVEIKR
For B10, the “hCRHR1 Luciferase Reporter Assay IC50” value was 0.73 nM.

B11: PR302341-4 (antibody, human IgG1, kappa, V domains shown)
VH: EVQLQQSGPELVKPGASVKMSCKASGYTFTDYFMKWVKQSHGESLEWIGVINPNNGDIFYNQKFKGKATLTVDKSSSTAFMQLNSLTSEDSAVYSCARGTDRALFAYWGQGTLVAVSA
VL: DVVMTQTPLSSPVTLGQPASISCRSGQSIVHSDGNTYLEWYQQRPGQPPRLLIYKVSNRFSGVPDRFSGSGAGTDFTLKISRVEAEDLGVYYCFQGSHIPWTFGGGTKVEIKR
B11: the “hCRHR1 Luciferase Reporter Assay IC50” value was 0.107 nM.

B12: PR302341-22 (antibody, human IgG1, kappa, V domains shown)
VH: QVQLVQSGAEVKKPGASVKVSCKASGYTFTDYFMKWVRQAPGQGLEWMGVINPNNGDIFYNQKFKGRVTMTRDTSISTAYMELSRLRSDDTAVYYCARGTDRALFAYWGQGTLVTVSS
VL: DVVMTQSPLSLPVTLGQPASISCRSGQSIVHSDGNTYLEWYQQRPGQSPRLLIYKVSNRFSGVPDRFSGSGSGTDFTLKISRVEAEDLGVYYCFQGSHIPWTFGGGTKVEIKR
Take B12: the “hCRHR1 Luciferase Reporter Assay IC50” value was determined as 0.243 nM.

B13: PR302341-8 (antibody, human IgG1, kappa, V domains shown)
VH: QVQLVQSGAEVKKPGASVKVSCKASGYTFTDYFMKWVRQAPGQGLEWMGVINPNNGDIFYNQKFKGRVTMTVDKSTSTAYMELSSLRSEDTAVYYCARGTDRALFAYWGQGTLVTVSS
VL: DVVMTQSPLSLPVTLGQPASISCRSGQSIVHSDGNTYLEWYQQRPGQSPRLLIYKVSNRFSGVPDRFSGSGSGTDFTLKISRVEAEDLGVYYCFQGSHIPWTFGGGTKVEIKR
Regarding B13, the “hCRHR1 Luciferase Reporter Assay IC50” value was determined as 0.165 nM and the “mCrhr1 Luciferase Reporter Assay IC50” value amounted to 0.357 nM.

B14: PR302341-3 (antibody, human IgG1, kappa, V domains shown)
VH: EVQLQQSGPELVKPGASVKMSCKASGYTFTDYFMKWVKQSHGESLEWIGVINPNNGDIFYNQKFKGKATLTVDKSSSTAFMQLNSLTSEDSAVYSCARGTDRALFAYWGQGTLVAVSA
VL: DIVMTQTPLSSPVTLGQPASISCRSGQSIVHSDGNTYLEWLQQRPGQPPRLLIYKVSNRFSGVPDRFSGSGAGTDFTLKISRVEAEDVGVYYCFQGSHIPWTFGGGTKVEIKR
Take B14: the “hCRHR1 Luciferase Reporter Assay IC50” value is 0.128 nM.

B15: PR302341-13 (antibody, human IgG1, kappa, V domains shown)
VH: QVQLVQSGAEVKKPGASVKVSCKASGYTFTDYFMKWVRQAPGQGLEWMGVINPNNGDIFYNQKFKGRVTMTRDTSTSTVYMELSSLRSEDTAVYYCARGTDRALFAYWGQGTLVTVSS
VL: DVLMTQTPLSLPVSLGDQASISCRSGQSIVHSDGNTYLEWYLQRPGQSPRLLIYKVSNRFSGVPDRFSGSGSGTDFTLKISRVGAEDLGIYYCFQGSHIPWTFGGGTKLEVKR
For the molecule B15, the “hCRHR1 Luciferase Reporter Assay IC50” value came to 0.124 nM.

B16: PR302341-14 (antibody, human IgG1, kappa, V domains shown)
VH: QVQLVQSGAEVKKPGASVKVSCKASGYTFTDYFMKWVRQAPGQGLEWMGVINPNNGDIFYNQKFKGRVTMTVDKSTSTAYMELSSLRSEDTAVYYCARGTDRALFAYWGQGTLVTVSS
VL: DVLMTQTPLSLPVSLGDQASISCRSGQSIVHSDGNTYLEWYLQRPGQSPRLLIYKVSNRFSGVPDRFSGSGSGTDFTLKISRVGAEDLGIYYCFQGSHIPWTFGGGTKLEVKR
Consider B16, for which the “hCRHR1 Luciferase Reporter Assay IC50” value was found to be 0.075 nM.

B17: PR302341-17 (antibody, human IgG1, kappa, V domains shown)
VH: QVQLVQSGAEVKKPGASVKVSCKASGYTFTDYFMKWVRQAPGQGLEWMGVINPNNGDIFYNQKFKGRVTMTRDTSISTAYMELSRLRSDDTAVYYCARGTDRALFAYWGQGTLVTVSS
VL: DVLMTQTPLSLPVSLGDQASISCRSGQSIVHSDGNTYLEWYLQRPGQSPRLLIYKVSNRFSGVPDRFSGSGSGTDFTLKISRVGAEDLGIYYCFQGSHIPWTFGGGTKLEVKR
B17: the “hCRHR1 Luciferase Reporter Assay IC50” value was found to be 0.104 nM.

B18: PR302341-18 (antibody, human IgG1, kappa, V domains shown)
VH: QVQLVQSGAEVKKPGASVKVSCKASGYTFTDYFMKWVRQAPGQGLEWMGVINPNNGDIFYNQKFKGRVTMTVDKSISTAYMELSRLRSDDTAVYYCARGTDRALFAYWGQGTLVTVSS
VL: DVLMTQTPLSLPVSLGDQASISCRSGQSIVHSDGNTYLEWYLQRPGQSPRLLIYKVSNRFSGVPDRFSGSGSGTDFTLKISRVGAEDLGIYYCFQGSHIPWTFGGGTKLEVKR
As for B18, the “hCRHR1 Luciferase Reporter Assay IC50” value was 0.169 nM.

B19: PR302341-15 (antibody, human IgG1, kappa, V domains shown)
VH: QVQLVQSGAEVKKPGASVKVSCKASGYTFTDYFMKWVRQAPGQRLEWMGVINPNNGDIFYNQKFKGRVTITRDTSASTAYMELSSLRSEDTAVYYCARGTDRALFAYWGQGTLVTVSS
VL: DVLMTQTPLSLPVSLGDQASISCRSGQSIVHSDGNTYLEWYLQRPGQSPRLLIYKVSNRFSGVPDRFSGSGSGTDFTLKISRVGAEDLGIYYCFQGSHIPWTFGGGTKLEVKR
Regarding B19, the “hCRHR1 Luciferase Reporter Assay IC50” value was found to be 0.124 nM.

B20: PR302341-16 (antibody, human IgG1, kappa, V domains shown)
VH: QVQLVQSGAEVKKPGASVKVSCKASGYTFTDYFMKWVRQAPGQRLEWMGVINPNNGDIFYNQKFKGRVTITVDKSASTAYMELSSLRSEDTAVYYCARGTDRALFAYWGQGTLVTVSS
VL: DVLMTQTPLSLPVSLGDQASISCRSGQSIVHSDGNTYLEWYLQRPGQSPRLLIYKVSNRFSGVPDRFSGSGSGTDFTLKISRVGAEDLGIYYCFQGSHIPWTFGGGTKLEVKR
For B20, the “hCRHR1 Luciferase Reporter Assay IC50” value turned out to be 0.225 nM.
